Results as given in paper PMC11374702, “Structural basis of the Meinwald rearrangement catalysed by styrene oxide isomerase” (Nature Chemistry, 2024).

Biological target: styrene oxide isomerase (SOI), Pseudomonas sp. VLB120, wild type (Pseudomonas sp. VLB120, UniProt O50216)
Assay: cell-based or functional assay

B1: nanobody (NB) raised against SOI, used for structure determination (VHH)
VHH: QGQLVESGGGLVQAGGSLRLSCTGSGRAFVTPAVGWFRQAPGKEREFVGTINWSGSHTSYADPVKGRFTISRDNAKETVYLQMNNLKPEDADVYYCASRGVSGRYEYWGKGTPVTVSS
- catalytic efficiency (kcat/KM) for (S)-styrene oxide of the SOI–NB complex compared to the wild-type enzyme, coupled enzyme assay with EcALDH: 3 fold
